Article PMC12090190 (ACS Chemical Biology, 2025)

What was measured:
[1] = target: T1, WT hOTC (human ornithine transcarbamylase) (Homo sapiens, UniProt P00480); test: differential scanning fluorimetry; type: binding; conditions: 4 μM enzyme; 10 mM sodium phosphate
T1 sequence (P00480 33-354): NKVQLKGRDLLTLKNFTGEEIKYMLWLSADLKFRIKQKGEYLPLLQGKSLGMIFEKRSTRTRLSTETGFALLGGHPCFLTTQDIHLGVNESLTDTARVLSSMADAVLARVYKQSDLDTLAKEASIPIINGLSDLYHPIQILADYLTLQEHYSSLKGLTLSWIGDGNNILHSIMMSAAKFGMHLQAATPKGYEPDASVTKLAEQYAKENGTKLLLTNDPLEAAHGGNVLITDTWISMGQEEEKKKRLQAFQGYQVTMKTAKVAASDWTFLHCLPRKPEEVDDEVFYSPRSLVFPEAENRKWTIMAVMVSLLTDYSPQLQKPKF

[2] = substrate: NC(=O)OP(=O)(O)O; test: discontinuous colorimetric citrulline assay, steady-state kinetics; type: biochemical, Homo sapiens; conditions: co-substrate ornithine

O=P(O)(O)O [phosphate]
dTm [1]: The addition of phosphate generally increased the melting temperature of these variants

B1: WT hOTC (human ornithine transcarbamylase) (Homo sapiens) (protein)
chain: T1 sequence (P00480 33-354)
Km [2]: 240 ± 70 µM | kcat [2]: 56 ± 9.8 s⁻¹ | kcat/Km [2]: 240000 ± 29000 M⁻¹ s⁻¹
